According to PMC4227767, “Dye label interference with RNA modification reveals 5-fluorouridine as non-covalent inhibitor”:

T1: TruB (tmTruB), tRNA pseudouridine-55 synthase (Thermotoga maritima, UniProt Q9WZW0 1-309)
T1 sequence: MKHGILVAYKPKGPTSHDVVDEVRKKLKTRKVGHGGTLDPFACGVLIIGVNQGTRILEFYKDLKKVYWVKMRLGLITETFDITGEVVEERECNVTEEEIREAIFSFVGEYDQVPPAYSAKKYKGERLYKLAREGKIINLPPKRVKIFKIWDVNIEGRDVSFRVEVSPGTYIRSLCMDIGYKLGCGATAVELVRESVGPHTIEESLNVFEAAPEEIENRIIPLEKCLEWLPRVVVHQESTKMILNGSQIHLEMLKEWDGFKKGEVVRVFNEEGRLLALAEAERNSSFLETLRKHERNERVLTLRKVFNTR


Key:
[1] = target: T1, TruB (tmTruB), tRNA pseudouridine-55 …; test: fluorescence titration (spectral shifts, lifetime/anisotropy); average over three titration curves; 200 nM tRNA; 1x MST buffer (composition not in material); tRNA folded 4 min 75 C in water then cooled in buffer; MST at 25 C, 50 nM tRNA; fluorescence at 200 nM tRNA; SDS-PAGE complexes formed at 25 or 70 C; details: protein: recombinant, tRNA fold
[2] = target: T1, TruB (tmTruB), tRNA pseudouridine-55 …; test: MST; one of three runs 1 month apart; unit cut off in the material (nM assumed); 1x MST buffer (composition not in material); tRNA folded 4 min 75 C in water then cooled in buffer; MST at 25 C, 50 nM tRNA; fluorescence at 200 nM tRNA; SDS-PAGE complexes formed at 25 or 70 C; details: protein: recombinant; label: Cy5 at U33 (internal); tRNA fold

Row | Binder | Kd ([1]; label: Cy5 at C49 (internal)) [nM] | Kd ([1]; label: Cy5 at U33 (internal)) [nM] | Kd [2] [nM]
1 | C49-5FU55-tRNA (Cy5 at C49) (structured_RNA, 5-fluorouridine at position 55; 5-aminohexyl-3-acrylimido-deoxycytidine at C49) RNA: GCGGAUUUAGCUCAGUUGGGAGAGCGCCAGACUGAAGAUCUGGAGGUCCUGUGUUCGAUCCACAGAAUUCGCACCA | 124 | – | –
2 | U33-5FU55-tRNA (Cy5 at U33) (structured_RNA, 5-fluorouridine at position 55; 5-aminohexyl-3-acrylimido-uridine at U33) RNA: GCGGAUUUAGCUCAGUUGGGAGAGCGCCAGACUGAAGAUCUGGAGGUCCUGUGUUCGAUCCACAGAAUUCGCACCA | – | 3.7 | 37.3
3 | C49-U55-tRNA (Cy5 at C49) (structured_RNA, 5-aminohexyl-3-acrylimido-deoxycytidine at C49) RNA: GCGGAUUUAGCUCAGUUGGGAGAGCGCCAGACUGAAGAUCUGGAGGUCCUGUGUUCGAUCCACAGAAUUCGCACCA | 226 | – | –
